Source: patent US20040053822A1 (published 2004)

Molecular target: HLA-A*0201 (human)
Assay: competition with 125I-labelled probe peptide for purified HLA-A*0201

Row | relative binding ratio [ratio] | Binder
1 | 0.0001 | GLEARGEAL [MAGE2 peptide, position 15, 9 amino acids]

Molecular target: HLA-DRB1*0301 (human)
Assay: inhibition of 125I probe peptide binding to purified HLA

Row | relative binding ratio | Binder
2 | 0.066 IC50 standard/IC50 peptide | IIAIEGDCAPEEKIW

Molecular target: HLA-B*5401 (human)
Assay: competition vs 125I probe peptide, purified HLA

Row | IC50 [nM] | Binder
3 | 1.4 | FPHISYPPI [MAGE3.296.F1I9 FPHISYPPI]
4 | 46 | FPKAGLLI [MAGE3.196.F1I8 FPKAGLLI]
5 | 400 | FPQGASSI [MAGE3.64.F1 FPQGASSI]
6 | 127 | FPRALIETSYI [MAGE2.274.F1I11 FPRALIETSYI]
7 | 59 | FPRALVETSYI [MAGE3.274.F1I11 FPRALVETSYI]
8 | 0.4 | FPIGHLYIFA [MAGE3.170.F1 FPIGHLYIFA]
9 | 1.1 | FPKAGLLIIV [MAGE3.196.F1 FPKAGLLIIV]
10 | 3 | FPTTMNYPL [MAGE3.71.F1 FPTTMNYPL]
11 | 1.5 | FPTTMNYPI [MAGE3.71.F1I9 FPTTMNYPI]
12 | 0.6 | FPIGHLYII [MAGE3.170.F1I9 FPIGHLYII]

Molecular target: HLA-B*0702 (human)
Assay: competition vs 125I probe peptide, purified HLA

Row | IC50 [nM] | Binder
13 | 134 | FPKTGLLI [MAGE2.196.F1I8 FPKTGLLI]
14 | 122 | FPLWSQSI [MAGE3.77.F1 FPLWSQSI]
15 | 7.4 | FPRALIETSYI [MAGE2.274.F1I11 FPRALIETSYI]
16 | 39 | FPIGHLYIFA [MAGE3.170.F1 FPIGHLYIFA]
17 | 220 | FPKAGLLIIV [MAGE3.196.F1 FPKAGLLIIV]
18 | 6.4 | FPTTMNYPL [MAGE3.71.F1 FPTTMNYPL]
19 | 59 | FPTTMNYPI [MAGE3.71.F1I9 FPTTMNYPI]
20 | 220 | FPTTMNYPLW [MAGE3.71.F1 FPTTMNYPLW]

Molecular target: HLA-B*5101 (human)
Assay: competition vs 125I probe peptide, purified HLA

Row | IC50 [nM] | Binder
21 | 177 | FPHISYPPL [MAGE2.296.F1 FPHISYPPL]
22 | 70 | FPRALIETSYI [MAGE2.274.F1I11 FPRALIETSYI]
23 | 128 | FPRALIETSYV [MAGE2.274.F1 FPRALIETSYV]
24 | 56 | FPIGHLYIFA [MAGE3.170.F1 FPIGHLYIFA]
25 | 190 | FPKAGLLIIV [MAGE3.196.F1 FPKAGLLIIV]
26 | 65 | FPKAGLLIII [MAGE3.196.F1I10 FPKAGLLIII]
27 | 423 | FPTTMNYPL [MAGE3.71.F1 FPTTMNYPL]
28 | 5 | FPIGHLYII [MAGE3.170.F1I9 FPIGHLYII]

Molecular target: HLA-B*5301 (human)
Assay: competition vs 125I probe peptide, purified HLA

Row | IC50 [nM] | Binder
29 | 233 | FPHISYPPI [MAGE3.296.F1I9 FPHISYPPI]
30 | 775 | FPKAGLLI [MAGE3.196.F1I8 FPKAGLLI]
31 | 3320 | FPKTGLLI [MAGE2.196.F1I8 FPKTGLLI]
32 | 245 | FPLWSQSI [MAGE3.77.F1 FPLWSQSI]
33 | 3000 | FPQGASSI [MAGE3.64.F1 FPQGASSI]
34 | 465 | FPRALIETSYI [MAGE2.274.F1I11 FPRALIETSYI]
35 | 620 | FPRALVETSYI [MAGE3.274.F1I11 FPRALVETSYI]
36 | 7750 | FPRALIETSYV [MAGE2.274.F1 FPRALIETSYV]
37 | 179 | FPIGHLYIFA [MAGE3.170.F1 FPIGHLYIFA]
38 | 8.5 | FPIGHLYIFI [MAGE3.170.F1I10 FPIGHLYIFI]
39 | 4650 | FPKAGLLIIV [MAGE3.196.F1 FPKAGLLIIV]
40 | 846 | FPKAGLLIII [MAGE3.196.F1I10 FPKAGLLIII]
41 | 39 | FPTTMNYPL [MAGE3.71.F1 FPTTMNYPL]
42 | 8.5 | FPTTMNYPI [MAGE3.71.F1I9 FPTTMNYPI]

Molecular target: HLA-B*3501 (human)
Assay: competition vs 125I probe peptide, purified HLA

Row | IC50 [nM] | Binder
43 | 360 | FPHISYPPI [MAGE3.296.F1I9 FPHISYPPI]
44 | 1010 | FPLWSQSI [MAGE3.77.F1 FPLWSQSI]
45 | 3600 | FPRALIETSYI [MAGE2.274.F1I11 FPRALIETSYI]
46 | 4240 | FPRALVETSYV [MAGE3.274.F1 FPRALVETSYV]
47 | 5540 | FPRALVETSYI [MAGE3.274.F1I11 FPRALVETSYI]
48 | 4500 | FPRALIETSYV [MAGE2.274.F1 FPRALIETSYV]
49 | 51 | FPIGHLYIFA [MAGE3.170.F1 FPIGHLYIFA]
50 | 139 | FPIGHLYIFI [MAGE3.170.F1I10 FPIGHLYIFI]
51 | 878 | FPKAGLLIIV [MAGE3.196.F1 FPKAGLLIIV]
52 | 4.5 | FPTTMNYPL [MAGE3.71.F1 FPTTMNYPL]

Molecular target: HLA-A*6802 (human)
Assay: competition with 125I probe peptide, purified HLA

Row | IC50 [nM] | Binder
53 | 400 | KLAELVHFL [MAGE3.112L2 KLAELVHFL]
54 | 73 | KLAELVHFV [MAGE3.112L2V9 KLAELVHFV]
55 | 3080 | ALIETSYVKV [MAGE2.277 10-mer ALIETSYVKV]

Molecular target: HLA-A*0206 (human)
Assay: competition with 125I probe peptide, purified HLA

Row | IC50 [nM] | Binder
56 | 39 | KMAELVHFV [MAGE3.112M2V9 KMAELVHFV]
57 | 1950 | ALIETSYVKV [MAGE2.277 10-mer ALIETSYVKV]

Molecular target: HLA-A*0201 (human)
Assay: competition with 125I probe peptide, purified HLA

Row | IC50 [nM] | Binder
58 | 56 | HLYIFATCLGL [MAGE3.174 11-mer HLYIFATCLGL]

Molecular target: HLA-A*0202 (human)
Assay: competition with 125I probe peptide, purified HLA

Row | IC50 [nM] | Binder
59 | 741 | HLYIFATCLGL [MAGE3.174 11-mer HLYIFATCLGL]
60 | 729 | ALIETSYVKV [MAGE2.277 10-mer ALIETSYVKV]
61 | 642 | KIWEELSML [MAGE2.220 9-mer KIWEELSML]

Molecular target: HLA-A*0203 (human)
Assay: competition with 125I probe peptide, purified HLA

Row | IC50 [nM] | Binder
62 | 5.9 | KLAELVHFL [MAGE3.112L2 KLAELVHFL]
63 | 46 | KMAELVHFV [MAGE3.112M2V9 KMAELVHFV]
64 | 175 | KIWEELSML [MAGE2.220 9-mer KIWEELSML]

Molecular target: HLA-DRB1*0301 (human)
Assay: inhibition of 125I probe peptide binding to purified HLA
Remark: another data set of the same source

Row | relative binding ratio | Binder
65 | 0.066 IC50 standard/IC50 peptide | IIAIEGDCAPEEKIW

Molecular target: HLA-DRB1*0101 (human)
Assay: inhibition of 125I-probe binding to purified HLA-DR

Row | IC50 [nM] | Binder
66 | ≤ 1000 | LIIVLAIIAIEGDCA [MAGE2.202 (15-mer)]
67 | ≤ 1000 | LLIIVLAIIAIEGDC [MAGE2.201 (15-mer)]

Molecular target: HLA-A*0201 (human)
Assay: competition with 125I probe peptide, purified HLA, gel filtration

Row | relative binding ratio | Binder
68 | 0.0001 ratio (IC50 standard / IC50 test peptide) | GLEARGEAL [MAGE3 peptide, position 15, 9 amino acids]
